Reference: the supplement of paper PMC5998384

Key:
HeLa Kyoto [1] = assay: solubility in G1/S (NP-40 vs SDS abundance) (log2 ratio); higher = more soluble; conditions: cell cycle stage: G1/S
HeLa Kyoto [2] = assay: solubility change mitosis vs G1/S (difference of NP-40 vs SDS log2 ratios) (log2 ratio difference); higher = more soluble in mitosis
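Throughout, for solubility change mitosis vs G1/S (difference of NP-40 vs SDS log2 ratios): synchronized HeLa Kyoto cells (double thymidine block for G1/S, nocodazole release for mitosis), protein amounts in NP-40 versus SDS lysates quantified by mass spectrometry, three biological replicates.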
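Throughout, for solubility in G1/S (NP-40 vs SDS abundance): HeLa Kyoto cells arrested at G1/S by double thymidine block, proteins quantified by TMT10plex mass spectrometry in mild NP-40 versus SDS extracts, three biological replicates.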

Chain of MBD4 (chain, as listed by the source): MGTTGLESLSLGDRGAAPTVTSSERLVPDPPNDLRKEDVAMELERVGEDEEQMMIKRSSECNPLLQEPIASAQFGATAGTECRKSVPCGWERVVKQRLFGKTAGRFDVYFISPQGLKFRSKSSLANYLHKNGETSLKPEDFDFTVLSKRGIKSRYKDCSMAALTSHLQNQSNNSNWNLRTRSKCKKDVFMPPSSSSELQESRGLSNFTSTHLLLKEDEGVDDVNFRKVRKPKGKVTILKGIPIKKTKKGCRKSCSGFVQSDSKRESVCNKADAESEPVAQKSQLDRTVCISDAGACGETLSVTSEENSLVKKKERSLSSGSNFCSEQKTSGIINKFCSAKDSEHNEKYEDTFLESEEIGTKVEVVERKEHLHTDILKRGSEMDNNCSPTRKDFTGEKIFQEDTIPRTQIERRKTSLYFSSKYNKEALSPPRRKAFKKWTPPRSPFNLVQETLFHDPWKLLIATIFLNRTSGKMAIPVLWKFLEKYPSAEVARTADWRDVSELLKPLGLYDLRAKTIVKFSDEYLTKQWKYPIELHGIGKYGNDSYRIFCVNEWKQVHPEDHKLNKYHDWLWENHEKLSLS

Substance	solubility in G1/S (log2) (HeLa Kyoto [1])	solubility change mitosis (log2) (HeLa Kyoto [2])
MASSGAGDPLDSKRGEAPFAQRIDPTREKLTPEQLHSMRQAELAQWQKVLPRRRTRNIVTGLGIGALVLAIYGYTFYSISQERFLDELEDEAKAARARALARASGS [COA3]	-0.65	0.902
MASVLSYESLVHAVAGAVGSVTAMTVFFPLDTARLRLQVDEKRKSKTTHMVLLEIIKEEGLLAPYRGWFPVISSLCCSNFVYFYTFNSLKALWVKGQHSTTGKDLVVGFVAGVVNVLLTTPLWVVNTRLKLQGAKFRNEDIVPTNYKGIIDAFHQIIRDEGISALWNGTFPSLLLVFNPAIQFMFYEGLKRQLLKKRMKLSSLDVFIIGAVAKAIATTVTYPLQTVQSILRFGRHRLNPENRTLGSLRNILYLLHQRVRRFGIMGLYKGLEAKLLQTVLTAALMFLVYEKLTAATFTVMGLKRAHQH [SLC25A17]	-0.148	-0.0966
MASVRIREAKEGDCGDILRLIRELAEFEKLSDQVKISEEALRADGFGDNPFYHCLVAEILPAPGKLLGPCVVGYGIYYFIYSTWKGRTIYLEDIYVMPEYRGQGIGSKIIKKVAEVALDKGCSQFRLAVLDWNQRAMDLYKALGAQDLTEAEGWHFFCFQGEATRKLAGK [SAT2]	0.139	-0.259
MASVSSATFSGHGARSLLQFLRLVGQLKRVPRTGWVYRNVQRPESVSDHMYRMAVMAMVIKDDRLNKDRCVRLALVHDMAECIVGDIAPADNIPKEEKHRREEEAMKQITQLLPEDLRKELYELWEEYETQSSAEAKFVKQLDQCEMILQASEYEDLEHKPGRLQDFYDSTAGKFNHPEIVQLVSELEAERSTNIAAAASEPHS [HDDC2]	0.452	0.118
MATSLDFKTYVDQACRAAEEFVNIYYETMDKRRRALTRLYLDKATLIWNGNAVSGLDALNNFFDTLPSSEFQVNMLDCQPVHEQATQSQTTVLVVTSGTVKFDGNKQHFFNQNFLLTAQSTPNNTVWKIASDCFRFQDWSSS [NXT2]	-0.596	0.401
MAVTLSLLLGGRVCAAVTRCGFATRGVAGPGPIGREPDPDSDWEPEERELQEVESTLKRQKQAIRFQKIRRQMEAPGAPPRTLTWEAMEQIRYLHEEFPESWSVPRLAEGFDVSTDVIRRVLKSKFLPTLEQKLKQDQKVLKKAGLAHSLQHLRGSGNTSKLLPAGHSVSGSLLMPGHEASSKDPNHSTALKVIESDTHRTNTPRRRKGRNKEIQDLEESFVPVAAPLGHPRELQKYSSDSESPRGTGSGALPSGQKLEELKAEEPDNFSSKVVQRGREFFDSNGNFLYRI [NGRN]	0.784	0.276
MBD4	-0.669	0.427
MCTKMEQPFYHDDSYTATGYGRAPGGLSLHDYKLLKPSLAVNLADPYRSLKAPGARGPGPEGGGGGSYFSGQGSDTGASLKLASSELERLIVPNSNGVITTTPTPPGQYFYPRGGGSGGGAGGAGGGVTEEQEGFADGFVKALDDLHKMNHVTPPNVSLGATGGPPAGPGGVYAGPEPPPVYTNLSSYSPASASSGGAGAAVGTGSSYPTTTISYLPHAPPFAGGHPAQLGLGRGASTFKEEPQTVPEARSRDATPPVSPINMEDQERIKVERKRLRNRLAATKCRKRKLERIARLEDKVKTLKAENAGLSSTAGLLREQVAQLKQKVMTHVSNGCQLLLGVKGHAF [JUNB]	0.0721	0.346
MDEADRRLLRRCRLRLVEELQVDQLWDALLSRELFRPHMIEDIQRAGSGSRRDQARQLIIDLETRGSQALPLFISCLEDTGQDMLASFLRTNRQAAKLSKPTLENLTPVVLRPEIRKPEVLRPETPRPVDIGSGGFGDVGALESLRGNADLAYILSMEPCGHCLIINNVNFCRESGLRTRTGSNIDCEKLRRRFSSLHFMVEVKGDLTAKKMVLALLELAQQDHGALDCCVVVILSHGCQASHLQFPGAVYGTDGCPVSVEKIVNIFNGTSCPSLGGKPKLFFIQACGGEQKDHGFEVASTSPEDESPGSNPEPDATPFQEGLRTFDQLDAISSLPTPSDIFVSYSTFPGFVSWRDPKSGSWYVETLDDIFEQWAHSEDLQSLLLRVANAVSVKGIYKQMPGCFNFLRKKLFFKTS [CASP9]	0.32	-0.0656
MDEDGGGEGGGVPEDLSLEEREELLDIRRRKKELIDDIERLKYEIAEVMTEIDNLTSVEESKTTQRNKQIAMGRKKFNMDPKKGIQFLIENDLLQSSPEDVAQFLYKGEGLNKTVIGDYLGERDEFNIKVLQAFVELHEFADLNLVQALRQFLWSFRLPGEAQKIDRMMEAFASRYCLCNPGVFQSTDTCYVLSFAIIMLNTSLHNHNVRDKPTAERFIAMNRGINEGGDLPEELLRNLYESIKNEPFKIPEDDGNDLTHTFFNPDREGWLLKLGGGRVKTWKRRWFILTDNCLYYFEYTTDKEPRGIIPLENLSIREVEDPRKPNCFELYNPSHKGQVIKACKTEADGRVVEGNHVVYRISAPSPEEKEEWMKSIKASISRDPFYDMLATRKRRIANKK [CYTH3]	0.26	-0.11
MDEQEALNSIMNDLVALQMNRRHRMPGYETMKNKDTGHSNRQSDVRIKFEHNGERRIIAFSRPVKYEDVEHKVTTVFGQPLDLHYMNNELSILLKNQDDLDKAIDILDRSSSMKSLRILLLSQDRNHNSSSPHSGVSRQVRIKASQSAGDINTIYQPPEPRSRHLSVSSQNPGRSSPPPGYVPERQQHIARQGSYTSINSEGEFIPETSEQCMLDPLSSAENSLSGSCQSLDRSADSPSFRKSRMSRAQSFPDNRQEYSDRETQLYDKGVKGGTYPRRYHVSVHHKDYSDGRRTFPRIRRHQGNLFTLVPSSRSLSTNGENMGLAVQYLDPRGRLRSADSENALSVQERNVPTKSPSAPINWRRGKLLGQGAFGRVYLCYDVDTGRELASKQVQFDPDSPETSKEVSALECEIQLLKNLQHERIVQYYGCLRDRAEKTLTIFMEYMPGGSVKDQLKAYGALTESVTRKYTRQILEGMSYLHSNMIVHRDIKGANILRDSAGNVKLGDFGASKRLQTICMSGTGMRSVTGTPYWMSPEVISGEGYGRKADVWSLGCTVVEMLTEKPPWAEYEAMAAIFKIATQPTNPQLPSHISEHGRDFLRRIFVEARQRPSAEELLTHHFAQLMY [MAP3K3]	0.569	-0.169
MDFREILMIASKGQGVNNVPKRYSLAVGPPKKDPKVKGVQSAAVQAFLKRKEEELRRKALEEKRRKEELVKKRIELKHDKKARAMAKRTKDNFHGYNGIPIEEKSKKRQATESHTSQGTDREYEMEEENEFLEYNHAESEQEYEEEQEPPKVESKPKVPLKSAPPPMNFTDLLRLAEKKQFEPVEIKVVKKSEERPMTAEELREREFLERKHRRKKLETDGKLPPTVSKKAPSQKESVGTKLSKGSGDRHPSSKGMPLPHAEKKSRPSMANEKHLALSSSKSMPGERIKAGSGNSSQPSLREGHDKPVFNGAGKPHSSTSSPSVPKTSASRTQKSAVEHKAKKSLSHPSHSRPGPMVTPHNKAKSPGVRQPGSSSSSAPGQPSTGVARPTVSSGPVPRRQNGSSSSGPERSISGSKKPTNDSNPSRRTVSGTCGPGQPASSSGGPGRPISGSVSSARPLGSSRGPGRPVSSPHELRRPVSGLGPPGRSVSGPGRSISGSIPAGRTVSNSVPGRPVSSLGPGQTVSSSGPTIKPKCTVVSETISSKNIISRSSNGQMNGMKPPLSGYRAAQGPQRLPFPTGYKRQREYEEEDDDDDEYDSEMEDFIEDEGEPQEEISKHIREIFGYDRKKYKDESDYALRYMESSWKEQQKEEAKSLRLGMQEDLEEMRREEEEMQRRRAKKLKRR [SPTY2D1]	-1.47	0.873
MDFSFSFMQGIMGNTIQQPPQLIDSANIRQEDAFDNNSDIAEDGGQTPYEATLQQGFQYPATTEDLPPLTNGYPSSISVYETQTKYQSYNQYPNGSANGFGAVRNFSPTDYYHSEIPNTRPHEILEKPSPPQPPPPPSVPQTVIPKKTGSPEIKLKITKTIQNGRELFESSLCGDLLNEVQASEHTKSKHESRKEKRKKSNKHDSSRSEERKSHKIPKLEPEEQNRPNERVDTVSEKPREEPVLKEEAPVQPILSSVPTTEVSTGVKFQVGDLVWSKVGTYPWWPCMVSSDPQLEVHTKINTRGAREYHVQFFSNQPERAWVHEKRVREYKGHKQYEELLAEATKQASNHSEKQKIRKPRPQRERAQWDIGIAHAEKALKMTREERIEQYTFIYIDKQPEEALSQAKKSVASKTEVKKTRRPRSVLNTQPEQTNAGEVASSLSSTEIRRHSQRRHTSAEEEEPPPVKIAWKTAAARKSLPASITMHKGSLDLQKCNMSPVVKIEQVFALQNATGDGKFIDQFVYSTKGIGNKTEISVRGQDRLIISTPNQRNEKPTQSVSSPEATSGSTGSVEKKQQRRSIRTRSESEKSTEVVPKKKIKKEQVETVPQATVKTGLQKGASEISDSCKPLKKRSRASTDVEMTSSAYRDTSDSDSRGLSDLQVGFGKQVDSPSATADADVSDVQSMDSSLSRRGTGMSKKDTVCQICESSGDSLIPCEGECCKHFHLECLGLASLPDSKFICMECKTGQHPCFSCKVSGKDVKRCSVGACGKFYHEACVRKFPTAIFESKGFRCPQHCCSACSMEKDIHKASKGRMMRCLRCPVAYHSGDACIAAGSMLVSSYILICSNHSKRSSNSSAVNVGFCFVCARGLIVQDHSDPMFSSYAYKSHYLLNESNRAELMKLPMIPSSSASKKKCEKGGRLLCCESCPASFHPECLSIEMPEGCWNCNDCKAGKKLHYKQIVWVKLGNYRWWPAEICNPRSVPLNIQGLKHDLGDFPVFFFGSHDYYWVHQGRVFPYVEGDKSFAEGQTSINKTFKKALEEAAKRFQELKAQRESKEALEIEKNSRKPPPYKHIKANKVIGKVQIQVADLSEIPRCNCKPADENPCGLESECLNRMLQYECHPQVCPAGDRCQNQCFTKRLYPDAEIIKTERRGWGLRTKRSIKKGEFVNEYVGELIDEEECRLRIKRAHENSVTNFYMLTVTKDRIIDAGPKGNYSRFMNHSCNPNCETQKWTVNGDVRVGLFALCDIPAGMELTFNYNLDCLGNGRTECHCGADNCSGFLGVRPKSACASTNEEKAKNAKLKQKRRKIKTEPKQMHEDYCFQCGDGGELVMCDKKDCPKAYHLLCLNLTQPPYGKWECPWHQCDECSSAAVSFCEFCPHSFCKDHEKGALVPSALEGRLCCSEHDPMAPVSPEYWSKIKCKWESQDHGEEVKE [WHSC1L1]	-0.563	0.362
MDIIETAKLEEHLENQPSDPTNTYARPAEPVEEENKNGNGKPKSLSSGLRKGTKKYPDYIQIAMPTESRNKFPLEWWKTGIAFIYAVFNLVLTTVMITVVHERVPPKELSPPLPDKFFDYIDRVKWAFSVSEINGIILVGLWITQWLFLRYKSIVGRRFCFIIGTLYLYRCITMYVTTLPVPGMHFQCAPKLNGDSQAKVQRILRLISGGGLSITGSHILCGDFLFSGHTVTLTLTYLFIKEYSPRHFWWYHLICWLLSAAGIICILVAHEHYTIDVIIAYYITTRLFWWYHSMANEKNLKVSSQTNFLSRAWWFPIFYFFEKNVQGSIPCCFSWPLSWPPGCFKSSCKKYSRVQKIGEDNEKST [SGMS2]	-0.197	-0.0915
